Experiments:
Assay in all cases: AlphaScreen or HTRF
[1] = target: H3K4me2/H4K12ac nucleosome (UniProt P04908)
[2] = target: H3K4me3/H4K12ac nucleosome (UniProt P04908)
[3] = target: H3K4me1/H4K12ac nucleosome (UniProt P04908)

Row | fold reduction of binding relative to wild type [1] [fold] | fold reduction of binding relative to wild type [2] [fold] | fold reduction of binding relative to wild type [3] [fold] | Substance
1 | > 10 | > 10 | > 10 | PHIP Tudor–BD1–BD2 R1402S (from UniProt Q8WWQ0 940-1434) (domain or fragment)
2 | > 4 | – | > 4 | PHIP Tudor–BD1–BD2 R1310C (from UniProt Q8WWQ0 940-1434) (domain or fragment)
3 | > 3 | – | > 3 | PHIP Tudor–BD1–BD2 W1156L (from UniProt Q8WWQ0 940-1434) (domain or fragment)

From article PMC8653789
